This is an account of results in article PMC9040794, “The Plant Defense Signal Salicylic Acid Activates the RpfB-Dependent Quorum Sensing Signal Turnover via Altering the Culture and Cytoplasmic pH in the Phytopathogen Xanthomonas campestris” (mBio, 2022).

What is called Km is the concentration of substrate that gives half-maximal velocity.

In this series the test system is CC(C)CCCCCCC/C=C\C(=O)O. Nature of the series: purified protein. As to conditions: pH 7.0 phosphate (standard of pH 6, 7, 8 tested); co-substrates 5 mM ATP, 0.5 mM CoA; 10 mM MgCl2, 2 mM EDTA, 0.1% Triton X-100; 37°C in b48 (28°C elsewhere in the source).

Consider “RpfB (Xanthomonas campestris pv. campestris str. ATCC 33913)”, for which the Km came out at 6.5 µM.
